{
  "source": "paper PMC8490876",
  "about": "“Functional Characterization of a L-2-Haloacid Dehalogenase From Zobellia galactanivorans Dsij^T Suggests a Role in Haloacetic Acid Catabolism and a Wide Distribution in Marine Environments” (Frontiers in Microbiology, 2021)",
  "proteins": {"B1": {"name": "ZgHAD (Zobellia galactanivorans) (protein)", "chain": "MSAKVKKPELLIFDVNETLLDMGPLENAINESLNSEHAFSLWFRTLLHYSLTETLTGNYVDFGTIGKATLKMTMRKFGKNLSEDRLDAILGNIKKLPAHEDVKEGLKMLKEAQIKLVALSNSNGKLLNAQLQFAGLADYFDAIFSVEAVGRYKPELASYRAVLETMKVPAENTMMVAAHGWDILGAKRAGLRTAFVAREGHAIYPLDGTPELEAKTVLEVARTLLKN", "notes": "recombinant, pFO4 vector, E. coli BL21 (DE3); homodimer in solution"}},
  "key": {"purified protein [1]": {"substrate": "O=C(O)CBr", "assay": "purified protein", "type": "biochemical, Zobellia galactanivorans", "conditions": "20 °C, 1 mM HEPES, 1 mM EDTA, 20 mM sodium sulfate, 56 μM phenol red, pH 8.2 (initial), 0.3 mg/ml enzyme"}, "purified protein [2]": {"substrate": "O=C(O)CI", "assay": "purified protein", "type": "biochemical, Zobellia galactanivorans", "conditions": "20 °C, 1 mM HEPES, 1 mM EDTA, 20 mM sodium sulfate, 56 μM phenol red, pH 8.2 (initial), 0.3 mg/ml enzyme"}},
  "data": [
    {"protein": "B1", "values": [
      {"measurement": "Km", "setting": "purified protein [1]", "value": 460, "unit": "µM"},
      {"measurement": "Km", "setting": "purified protein [2]", "value": 310, "unit": "µM"}
    ]}
  ]
}
